± gives the half width of the 95% confidence interval.
What was measured:
[1] = folding stability dG unfold (combined trypsin and chymotrypsin); higher = more stable
Outline: (§1)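 Bayesian fitting of sequencing counts gave K50 for each design. Unfolding free energy followed by setting this against a sequence-predicted unfolded-state K50 and a shared folded-state K50, either per protease or with trypsin and chymotrypsin combined. The designs, under 80 residues and lacking cysteine, were digested in a PA-tagged cDNA display format at 11 threefold-diluted protease concentrations and without protease, and only those with AlphaFold2 dimer inter-PAE above 15 were kept.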

[2] = folding stability dG unfold from chymotrypsin proteolysis; higher = more stable
Outline: as §1

[3] = folding stability dG unfold from trypsin proteolysis; higher = more stable
Outline: as §1

Sequence	folding stability dG unfold [1]	folding stability dG unfold [2]	folding stability dG unfold [3]
SAGGSAGGMVVGILTITDPATGSSETLVIPMPSEEEAVERAKELAEELEAKKGKIVKVEIRPRPSAGGSAGG [r6_787_JUSTAS]	1.32 ± 0.19 kcal/mol	1.5 ± 0.088 kcal/mol	1.39 ± 0.064 kcal/mol
SAGGMTPEELREKAKKLAEELAKKLKEKYPNVKVEVEVDEETKKVKIKVKNKKTGKTYEITINLEELLSAGG [r13_354_TrROS_Hall]	4.09 ± 0.42 kcal/mol	3.94 ± 0.22 kcal/mol	3.85 ± 0.47 kcal/mol
SAGGSAGGKKKVKYYKIKEVKIEKDEDGNYTITVKVDGKTFTITIPKEKIKPGMKLKDIVIKIKSAGGSAGG [r6_255_TrROS_Hall]	3.16 ± 0.11 kcal/mol	3.57 ± 0.038 kcal/mol	1.91 ± 0.041 kcal/mol
SAGGSAGGSAMKVPLENVENPKKFPGTGLEIYTFTDKETGKKKIVLVEKPPNKGKKITVIESAGGSAGGSAG [r3_491_JUSTAS]	0.0523 ± 0.14 kcal/mol	-0.146 ± 0.28 kcal/mol	0.0339 ± 0.12 kcal/mol
SAGGSAGGSAGGMTLEELKKAIENAKPGETIEIEINGETYRITIIEKDGKLIIKIEKLPPSAGGSAGGSAGG [r7_448_TrROS_Hall]	4.19 ± 0.24 kcal/mol	4.21 ± 0.25 kcal/mol	4.36 ± 0.36 kcal/mol
SAGGSAGGMLLVRIKVRRPDGSEETIVLEFESEEELKAAIEELLPPGWEVVEIELVPLGEELPESAGGSAGG [r6_872_TrROS_Hall]	4.49 ± 0.11 kcal/mol	4.402 ± 0.042 kcal/mol	4.55 ± 0.17 kcal/mol
SGYLDAPVKDIKVEKKPIPTSGKVTYTFEAETEDGKPVRVEYNPVTGKIVFGLPPGFKIKPGKPAEVVVGSA [r9_509_TrMRF]	0.718 ± 0.13 kcal/mol	0.885 ± 0.2 kcal/mol	0.16 ± 0.081 kcal/mol
SAGGSAGGSAGGSPNWVWILITVKITFPIYKYDPDGKPLEPIEITIEFTVLIRIPPGDFSAGGSAGGSAGGS [r4_425_TrROS]	5.15 ± 0.27 kcal/mol	5.34 ± 0.18 kcal/mol	3.63 ± 0.19 kcal/mol
SAGGSAGGSAKIFARAPPGQWYRITVKYKGGNGDKKEHTATIPPNNPPPDIEDVEIEPIPPGSAGGSAGGSA [r18_223_TrROS]	3.12 ± 0.25 kcal/mol	3.15 ± 0.066 kcal/mol	3.55 ± 0.14 kcal/mol
SAGGSAGGSAWHIRIHPGNEPQWIPIDDLRDKGLPPEELAEELQKKFGFKVEIVDPGWIRVKSAGGSAGGSA [r18_7_TrROS]	-0.348 ± 0.24 kcal/mol	-0.364 ± 0.42 kcal/mol	-0.284 ± 0.26 kcal/mol
SAMKEGEEYEPVEKKKITIKNKKTNKTIEIEVVRNKKTNKYIVKITTKDGKKIEIVVSKEELEKLLKKLSAG [r14_240_TrROS_Hall]	3.01 ± 0.26 kcal/mol	3.08 ± 0.17 kcal/mol	2.25 ± 0.19 kcal/mol
SAGGGSMSESLSLVEEEIKVGETVVKVKRLIYPVSGTALVEITKPGGGPIGVFNTTISPSTGGVELLSAGGS [r16_798_JUSTAS]	< -1 kcal/mol	-1.38 ± 0.57 kcal/mol	-1.04 ± 0.17 kcal/mol
SAGGMVIRVRFRETNETVTLSPEVLEALKRGDPDALRALPEEQREALARIERVEIRPAPPVRVLPEEESAGG [r13_233_TrROS_Hall]	2.29 ± 0.43 kcal/mol	1.81 ± 0.14 kcal/mol	2.63 ± 0.14 kcal/mol
SAGGSANFNVKLEIKIIERNPGNPDYVIVRIKVEHRHPNPDGNPMEHRRPIPWIMITDPEEIKEFISAGGSA [r15_1019_TrROS]	2.36 ± 0.084 kcal/mol	2.39 ± 0.029 kcal/mol	2.32 ± 0.12 kcal/mol
SAGGSAGGSGDKDEVDPNKNISPIPPVKATIFPPDGTPRTVTFTSEEELKAYAEARGWTIEVPSAGGSAGGS [r12_244_JUSTAS]	0.318 ± 0.23 kcal/mol	0.231 ± 0.29 kcal/mol	0.000698 ± 0.12 kcal/mol
SAGGMVTITTEKMTEEEAEELKKKLPPNTVLLPNPANDTIVPILVPPDPAVLQAVKDALEKELAEAKSAGGS [r16_311_JUSTAS]	1.18 ± 0.15 kcal/mol	0.662 ± 0.24 kcal/mol	1.49 ± 0.13 kcal/mol
SAGGMPIKSKKEAEEFIKKGGAKYLSKTKVKVKGEEKEKEFEVYEFVFKDPKTNKPILVVVPKEYIGSAGGS [r16_271_TrMRF]	0.886 ± 0.23 kcal/mol	1.27 ± 0.15 kcal/mol	-0.0462 ± 0.2 kcal/mol
SAGMTTEKSPSGVGRVYLPTRTLELELLPDGTVVLRFPDGTEVVHPLSPEEAAAVRAELRARGLVVRPLSAG [r5_753_JUSTAS]	1.7 ± 0.1 kcal/mol	1.81 ± 0.092 kcal/mol	1.59 ± 0.062 kcal/mol
SAGGSAGGSAGGKVEIYENPSTPYLVVVVYNPETGEKTVVLFKPDNPELAEKVAKELASSAGGSAGGSAGGS [r10_1117_TrMRF]	1.38 ± 0.11 kcal/mol	1.81 ± 0.16 kcal/mol	0.711 ± 0.077 kcal/mol
SAGGALDAIKNIAEKFGFPEIEDIDIDPDNGWLSFRFRGPEPVYIKIPWKPDKNGNLPVNIEVYPMDDSAGG [r13_410_TrROS]	1.65 ± 0.13 kcal/mol	1.88 ± 0.11 kcal/mol	1.48 ± 0.041 kcal/mol
SAGGKVVKTKEEAEKLVKEGKAEVVSVKKVKVPVNGKEKEVEVLEVKIKDKKTKKEKTIVLTKEQLKSAGGS [r16_271_TrROS_Hall]	-0.894 ± 0.78 kcal/mol	-0.863 ± 0.27 kcal/mol	-0.319 ± 0.36 kcal/mol
